According to patent US20250051404A1:
pEC50, pIC50: −log10 of the molar value.

Columns and labels:
human VEGF165 (human) = human VEGF165 (human) (UniProt P15692); assay: direct binding ELISA, VEGF165 coated, anti-human IgG Fc-HRP detection
[1] = target: integrin αvβ3 expressed on CHO cells (CHO-αvβ3); assay: cell-based or functional assay

Chain of soluble integrin αvβ3 (P06756 31-992, chain 1 of 2): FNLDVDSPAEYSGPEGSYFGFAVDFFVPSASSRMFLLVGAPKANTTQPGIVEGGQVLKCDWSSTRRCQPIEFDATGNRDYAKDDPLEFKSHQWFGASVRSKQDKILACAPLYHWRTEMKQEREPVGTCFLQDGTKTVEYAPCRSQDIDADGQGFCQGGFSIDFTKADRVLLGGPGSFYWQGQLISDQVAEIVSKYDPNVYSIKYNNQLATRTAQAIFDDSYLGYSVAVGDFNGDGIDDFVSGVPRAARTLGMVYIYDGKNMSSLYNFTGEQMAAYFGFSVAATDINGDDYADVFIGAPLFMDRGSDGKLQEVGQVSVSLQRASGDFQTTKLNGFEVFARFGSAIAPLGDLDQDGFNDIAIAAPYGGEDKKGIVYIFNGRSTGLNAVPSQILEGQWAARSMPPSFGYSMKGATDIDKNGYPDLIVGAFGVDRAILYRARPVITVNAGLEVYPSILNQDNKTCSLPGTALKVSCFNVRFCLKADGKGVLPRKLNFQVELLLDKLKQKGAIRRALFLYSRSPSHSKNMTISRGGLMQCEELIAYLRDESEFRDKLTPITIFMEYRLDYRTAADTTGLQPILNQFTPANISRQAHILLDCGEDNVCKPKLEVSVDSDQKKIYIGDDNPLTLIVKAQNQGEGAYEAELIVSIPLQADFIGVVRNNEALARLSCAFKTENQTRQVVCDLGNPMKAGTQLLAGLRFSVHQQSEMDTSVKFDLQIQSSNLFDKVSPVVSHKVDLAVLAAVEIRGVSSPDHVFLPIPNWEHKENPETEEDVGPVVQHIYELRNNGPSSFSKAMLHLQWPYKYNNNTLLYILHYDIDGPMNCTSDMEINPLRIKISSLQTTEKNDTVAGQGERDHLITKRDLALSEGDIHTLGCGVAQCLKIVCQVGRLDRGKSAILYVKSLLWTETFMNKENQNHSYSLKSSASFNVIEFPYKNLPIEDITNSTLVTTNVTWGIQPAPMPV
Chain of soluble integrin αvβ3 (P05106 27-718, chain 2 of 2, further chain): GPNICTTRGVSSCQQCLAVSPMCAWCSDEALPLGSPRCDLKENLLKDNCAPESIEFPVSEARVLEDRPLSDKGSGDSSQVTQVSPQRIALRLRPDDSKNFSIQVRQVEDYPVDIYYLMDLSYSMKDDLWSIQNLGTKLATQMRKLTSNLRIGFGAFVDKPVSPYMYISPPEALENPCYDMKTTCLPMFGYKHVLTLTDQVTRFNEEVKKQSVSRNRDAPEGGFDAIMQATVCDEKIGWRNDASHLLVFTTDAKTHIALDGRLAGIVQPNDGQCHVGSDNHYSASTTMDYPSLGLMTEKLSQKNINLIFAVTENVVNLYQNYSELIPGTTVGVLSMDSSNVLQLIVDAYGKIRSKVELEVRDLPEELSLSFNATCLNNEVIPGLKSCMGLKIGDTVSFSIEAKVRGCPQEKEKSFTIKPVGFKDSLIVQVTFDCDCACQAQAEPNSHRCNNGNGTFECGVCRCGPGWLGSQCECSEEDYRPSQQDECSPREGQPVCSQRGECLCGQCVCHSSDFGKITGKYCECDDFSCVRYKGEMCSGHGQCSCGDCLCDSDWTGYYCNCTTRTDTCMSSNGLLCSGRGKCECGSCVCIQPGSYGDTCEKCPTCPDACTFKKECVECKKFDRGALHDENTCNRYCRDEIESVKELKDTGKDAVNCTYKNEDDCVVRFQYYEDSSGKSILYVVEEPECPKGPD

pEC50 (human VEGF165 (human))	Substance	αvβ3, IC50 (nM), inhibition of CHO-αvβ3 cell adhesion to fibrinogen [1] [nM]	pIC50 (soluble integrin αvβ3)
9.71 to 10.06	Positive Control 2 (aflibercept) (Fc fusion)	–	–
–	Positive Control 3 (wild type Rho, SEQ ID NO: 1) (from UniProt P30403 408-475) (ligand)	24.7	8.49 to 8.59
